Test results published in US20140087995A1 (published 2014).
Numbered stars: 1 amine (or outer) side, 2 acyl side, 3 side chain; on linkers, the order of the positions; unused ones are H or OH. Bridge positions count the residues as written; N and C are the ends. Side chains are listed from the residue outwards. Ends that are not written are not given here. * marks the point of attachment. C20 diacid = O=C(O)CCCCCCCCCCCCCCCCCCC(=O)*; γGlu = O=C(O)[C@H](CCC(=O)[*:2])N[*:1]

T1: rat calcitonin receptor (rat, UniProt P32214 25-516)
T1 construct: whole, on cells; also called rCTR; rat calcitonin (a) receptor
T1 sequence (looked up): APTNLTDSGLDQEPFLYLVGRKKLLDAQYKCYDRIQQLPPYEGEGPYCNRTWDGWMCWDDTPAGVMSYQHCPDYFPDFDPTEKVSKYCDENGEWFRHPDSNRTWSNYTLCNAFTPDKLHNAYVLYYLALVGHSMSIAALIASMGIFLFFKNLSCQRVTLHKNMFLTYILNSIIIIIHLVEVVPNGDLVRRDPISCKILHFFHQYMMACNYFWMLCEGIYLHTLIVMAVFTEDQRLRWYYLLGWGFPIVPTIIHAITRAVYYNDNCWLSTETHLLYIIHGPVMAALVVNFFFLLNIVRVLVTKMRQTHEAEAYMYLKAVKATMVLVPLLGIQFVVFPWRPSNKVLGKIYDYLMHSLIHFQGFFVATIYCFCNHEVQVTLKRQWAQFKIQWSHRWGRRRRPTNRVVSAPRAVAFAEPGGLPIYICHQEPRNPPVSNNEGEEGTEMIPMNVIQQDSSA

T2: human calcitonin receptor (human, UniProt P30988 25-474)
T2 construct: whole, on cells; also called hCTR; hCT
T2 sequence (looked up): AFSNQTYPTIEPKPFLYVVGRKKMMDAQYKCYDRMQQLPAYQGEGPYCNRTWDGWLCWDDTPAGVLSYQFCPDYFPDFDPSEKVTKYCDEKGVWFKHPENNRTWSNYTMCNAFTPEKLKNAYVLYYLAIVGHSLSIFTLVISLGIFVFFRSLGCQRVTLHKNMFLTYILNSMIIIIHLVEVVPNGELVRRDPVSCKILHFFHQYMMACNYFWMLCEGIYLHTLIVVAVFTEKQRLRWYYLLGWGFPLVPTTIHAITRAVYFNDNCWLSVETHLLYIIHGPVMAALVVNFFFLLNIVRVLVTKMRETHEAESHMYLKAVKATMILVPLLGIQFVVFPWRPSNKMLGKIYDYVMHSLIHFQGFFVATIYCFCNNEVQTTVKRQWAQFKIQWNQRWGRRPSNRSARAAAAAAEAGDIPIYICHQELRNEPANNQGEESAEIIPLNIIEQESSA

T3: rat amylin receptor (rat calcitonin receptor + rat RAMP 3) (rat, UniProt P32214 25-516; Q9JJ73 23-147)
T3 construct: whole, on cells; also called rAmylin-R; rat amylin 3(a) receptor
T3 sequence (looked up) 1: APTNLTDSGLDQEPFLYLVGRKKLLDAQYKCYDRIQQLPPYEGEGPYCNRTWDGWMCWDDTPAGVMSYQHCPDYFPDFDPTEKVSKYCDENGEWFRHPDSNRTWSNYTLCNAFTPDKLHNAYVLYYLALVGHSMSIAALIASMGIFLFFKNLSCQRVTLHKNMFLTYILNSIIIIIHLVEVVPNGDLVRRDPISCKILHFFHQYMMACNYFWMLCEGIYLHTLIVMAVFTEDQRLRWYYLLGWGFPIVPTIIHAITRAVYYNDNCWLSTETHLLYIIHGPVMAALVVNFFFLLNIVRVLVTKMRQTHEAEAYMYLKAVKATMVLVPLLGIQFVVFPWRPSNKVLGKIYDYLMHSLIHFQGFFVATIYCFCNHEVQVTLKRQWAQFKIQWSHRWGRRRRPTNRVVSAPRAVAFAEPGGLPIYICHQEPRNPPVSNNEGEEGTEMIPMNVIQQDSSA
T3 sequence (looked up) 2: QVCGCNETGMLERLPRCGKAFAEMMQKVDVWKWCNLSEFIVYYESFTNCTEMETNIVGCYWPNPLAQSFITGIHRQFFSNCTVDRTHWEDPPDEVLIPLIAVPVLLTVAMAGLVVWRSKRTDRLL


Assays:
rat calcitonin receptor [1] = biological target: T1, rat calcitonin receptor; assay: ratio of binding IC50s: rat calcitonin receptor over rat amylin receptor (reference)
[2] = biological target: T2, human calcitonin receptor; assay: ratio of binding IC50s: human calcitonin receptor over human amylin receptor (reference)
Outline: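 Membranes (35 ng/μL final) + SPA beads, 50 mM Hepes pH 7.4 buffer with 1 mM CaCl2, 5 mM MgCl₂, 0.1% OA, 0.02% Tween20; 120 min, 25° C, shaking; centrifuged, counted; IC₅₀ by one-site binding competition.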

rat calcitonin receptor [3] = biological target: T1, rat calcitonin receptor; assay: SPA competition with 125I-calcitonin, membranes of BHK cells with rat calcitonin receptor (Assay VIII)
[4] = biological target: T3, rat amylin receptor (rat calcitonin …); assay: SPA competition with 125I-rat amylin, membranes of BHK cells with rat calcitonin receptor + rat RAMP3 (Assay VI)

Binder	Ratio rCT/rAmylin binding (rat calcitonin receptor [1])	Ratio hCT/hAmylin binding [2]	IC50 (rat calcitonin receptor [3])	IC50 [4]
K([γGlu-C20 diacid])CNTATCATQRLANFLRHSSPNFGAIPSSTNVGHNTY-NH2 (disulfide 2-7; N-terminus assumed; SMILES CC[C@H](C)[C@H](NC(=O)[C@H](C)NC(=O)CNC(=O)[C@H](Cc1ccccc1)NC(=O)[C@H](CC(N)=O)NC(=O)[C@@H]1CCCN1C(=O)[C@H](CO)NC(=O)[C@H](CO)NC(=O)[C@H](Cc1c[nH]cn1)NC(=O)[C@H](CCCNC(=N)N)NC(=O)[C@H](CC(C)C)NC(=O)[C@H](Cc1ccccc1)NC(=O)[C@H](CC(N)=O)NC(=O)[C@H](C)NC(=O)[C@H](CC(C)C)NC(=O)[C@H](CCCNC(=N)N)NC(=O)[C@H](CCC(N)=O)NC(=O)[C@@H](NC(=O)[C@H](C)NC(=O)[C@@H]1CSSC[C@H](NC(=O)[C@@H](N)CCCCNC(=O)CC[C@H](NC(=O)CCCCCCCCCCCCCCCCCCC(=O)O)C(=O)O)C(=O)N[C@@H](CC(N)=O)C(=O)N[C@@H]([C@@H](C)O)C(=O)N[C@@H](C)C(=O)N[C@@H]([C@@H](C)O)C(=O)N1)[C@@H](C)O)C(=O)N1CCC[C@H]1C(=O)N[C@@H](CO)C(=O)N[C@@H](CO)C(=O)N[C@H](C(=O)N[C@@H](CC(N)=O)C(=O)N[C@H](C(=O)NCC(=O)N[C@@H](Cc1c[nH]cn1)C(=O)N[C@@H](CC(N)=O)C(=O)N[C@H](C(=O)N[C@@H](Cc1ccc(O)cc1)C(N)=O)[C@@H](C)O)C(C)C)[C@@H](C)O, synthetic analogue of human amylin; also called compound 77) [N^ε1-[(4S)-4-carboxy-4-(19-carboxynonadecanoylamino)butanoyl]-[Arg17,Pro21,Pro27,His34]-h-amylin]	137	118	205 nM	1.5 nM
K([γGlu-C20 diacid])CNTATCATQRLAHFLRHSSPNFGAIPSSTNVGRNTY-NH2 (disulfide 2-7; N-terminus assumed; SMILES CC[C@H](C)[C@H](NC(=O)[C@H](C)NC(=O)CNC(=O)[C@H](Cc1ccccc1)NC(=O)[C@H](CC(N)=O)NC(=O)[C@@H]1CCCN1C(=O)[C@H](CO)NC(=O)[C@H](CO)NC(=O)[C@H](Cc1c[nH]cn1)NC(=O)[C@H](CCCNC(=N)N)NC(=O)[C@H](CC(C)C)NC(=O)[C@H](Cc1ccccc1)NC(=O)[C@H](Cc1c[nH]cn1)NC(=O)[C@H](C)NC(=O)[C@H](CC(C)C)NC(=O)[C@H](CCCNC(=N)N)NC(=O)[C@H](CCC(N)=O)NC(=O)[C@@H](NC(=O)[C@H](C)NC(=O)[C@@H]1CSSC[C@H](NC(=O)[C@@H](N)CCCCNC(=O)CC[C@H](NC(=O)CCCCCCCCCCCCCCCCCCC(=O)O)C(=O)O)C(=O)N[C@@H](CC(N)=O)C(=O)N[C@@H]([C@@H](C)O)C(=O)N[C@@H](C)C(=O)N[C@@H]([C@@H](C)O)C(=O)N1)[C@@H](C)O)C(=O)N1CCC[C@H]1C(=O)N[C@@H](CO)C(=O)N[C@@H](CO)C(=O)N[C@H](C(=O)N[C@@H](CC(N)=O)C(=O)N[C@H](C(=O)NCC(=O)N[C@@H](CCCNC(=N)N)C(=O)N[C@@H](CC(N)=O)C(=O)N[C@H](C(=O)N[C@@H](Cc1ccc(O)cc1)C(N)=O)[C@@H](C)O)C(C)C)[C@@H](C)O, synthetic analogue of human amylin; also called compound 85)	46.5	91.8	146 nM	3.14 nM

These reach a lower IC50 (rat calcitonin receptor [3]). Values come first.

Ratio rCT/rAmylin binding (rat calcitonin receptor [1])	Ratio hCT/hAmylin binding [2]	IC50 (rat calcitonin receptor [3])	IC50 [4]	Binder
122	45.2	26.3 nM	0.215 nM	K([γGlu-C20 diacid])CNTATCATQRLANFLRHSSPNFGAIPSSTNVGSHTY-NH2 (disulfide 2-7; N-terminus assumed; SMILES CC[C@H](C)[C@H](NC(=O)[C@H](C)NC(=O)CNC(=O)[C@H](Cc1ccccc1)NC(=O)[C@H](CC(N)=O)NC(=O)[C@@H]1CCCN1C(=O)[C@H](CO)NC(=O)[C@H](CO)NC(=O)[C@H](Cc1c[nH]cn1)NC(=O)[C@H](CCCNC(=N)N)NC(=O)[C@H](CC(C)C)NC(=O)[C@H](Cc1ccccc1)NC(=O)[C@H](CC(N)=O)NC(=O)[C@H](C)NC(=O)[C@H](CC(C)C)NC(=O)[C@H](CCCNC(=N)N)NC(=O)[C@H](CCC(N)=O)NC(=O)[C@@H](NC(=O)[C@H](C)NC(=O)[C@@H]1CSSC[C@H](NC(=O)[C@@H](N)CCCCNC(=O)CC[C@H](NC(=O)CCCCCCCCCCCCCCCCCCC(=O)O)C(=O)O)C(=O)N[C@@H](CC(N)=O)C(=O)N[C@@H]([C@@H](C)O)C(=O)N[C@@H](C)C(=O)N[C@@H]([C@@H](C)O)C(=O)N1)[C@@H](C)O)C(=O)N1CCC[C@H]1C(=O)N[C@@H](CO)C(=O)N[C@@H](CO)C(=O)N[C@H](C(=O)N[C@@H](CC(N)=O)C(=O)N[C@H](C(=O)NCC(=O)N[C@@H](CO)C(=O)N[C@@H](Cc1c[nH]cn1)C(=O)N[C@H](C(=O)N[C@@H](Cc1ccc(O)cc1)C(N)=O)[C@@H](C)O)C(C)C)[C@@H](C)O, synthetic analogue of human amylin; also called compound 60) [N^ε1-[(4S)-4-carboxy-4-(19-carboxynonadecanoylamino)butanoyl]-[Arg17,Pro21,Pro27,His35]-h-amylin]
119	37.5	62 nM	0.523 nM	K([γGlu-C20 diacid])CNTATCATQRLAEFLRHSSPNFGAIPSSTNVGSRTY-NH2 (disulfide 2-7; N-terminus assumed; SMILES CC[C@H](C)[C@H](NC(=O)[C@H](C)NC(=O)CNC(=O)[C@H](Cc1ccccc1)NC(=O)[C@H](CC(N)=O)NC(=O)[C@@H]1CCCN1C(=O)[C@H](CO)NC(=O)[C@H](CO)NC(=O)[C@H](Cc1c[nH]cn1)NC(=O)[C@H](CCCNC(=N)N)NC(=O)[C@H](CC(C)C)NC(=O)[C@H](Cc1ccccc1)NC(=O)[C@H](CCC(=O)O)NC(=O)[C@H](C)NC(=O)[C@H](CC(C)C)NC(=O)[C@H](CCCNC(=N)N)NC(=O)[C@H](CCC(N)=O)NC(=O)[C@@H](NC(=O)[C@H](C)NC(=O)[C@@H]1CSSC[C@H](NC(=O)[C@@H](N)CCCCNC(=O)CC[C@H](NC(=O)CCCCCCCCCCCCCCCCCCC(=O)O)C(=O)O)C(=O)N[C@@H](CC(N)=O)C(=O)N[C@@H]([C@@H](C)O)C(=O)N[C@@H](C)C(=O)N[C@@H]([C@@H](C)O)C(=O)N1)[C@@H](C)O)C(=O)N1CCC[C@H]1C(=O)N[C@@H](CO)C(=O)N[C@@H](CO)C(=O)N[C@H](C(=O)N[C@@H](CC(N)=O)C(=O)N[C@H](C(=O)NCC(=O)N[C@@H](CO)C(=O)N[C@@H](CCCNC(=N)N)C(=O)N[C@H](C(=O)N[C@@H](Cc1ccc(O)cc1)C(N)=O)[C@@H](C)O)C(C)C)[C@@H](C)O, synthetic analogue of human amylin; also called compound 51)
